Substitutions are numbered along the chain they refer to. Names may count otherwise.
T1: catalytic domain of MMP-9 (cdMMP-9) (human, UniProt P14780 107-443, limits assumed)
T1 sequence: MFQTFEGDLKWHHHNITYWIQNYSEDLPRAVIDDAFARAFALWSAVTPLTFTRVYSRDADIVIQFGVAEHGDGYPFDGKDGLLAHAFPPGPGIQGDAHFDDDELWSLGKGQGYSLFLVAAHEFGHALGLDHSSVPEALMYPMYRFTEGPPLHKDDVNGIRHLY

B1: Fab 3E9 (Fab, V domains shown)
VH: EVQLVESGGGLVQPGGSLRLSCAASGFNLYYSSMHWVRQAPGKGLEWVASIYPSYGSTYYADSVKGRFTISADTSKNTAYLQMNSLRAEDTAVYYCARNGRYPGFLKRAHKRLLNFKAYVMDYWGQGTLVTVSS
VL: DIQMTQSPSSLSASVGDRVTITCRASQSVSSAVAWYQQKPGKAPKLLIYSASSLYSGVPSRFSGSRSGTDFTLTISSLQPEDFATYYCQQGSWYLITFGQGTKVEIKR
notes: not shown: His tag at the C-terminus of the heavy chain
B2: Fab 3E2 (Fab, V domains shown)
VH: EVQLVESGGGLVQPGGSLRLSCAASGFNIYYYSIHWVRQAPGKGLEWVASIYPYSSYTYYADSVKGRFTISADTSKNTAYLQMNSLRAEDTAVYYCARGIKGLVFTGSQMKMLRRGNYNWYVMDYWGQGTLVTVSS
VL: B1 VL with G91S, W93Y, Y94S
notes: as for B1
B3: Fab 32C2 (Fab, V domains shown)
VH: EVQLVESGGGLVQPGGSLRLSCAASGFNLYYYSMHWVRQAPGKGLEWVAYISPYSSSTYYADSVKGRFTISADTSKNTAYLQMNSLRAEDTAVYYCARSQHAKKSTIIRMLEHQSRSGMQYVMDYWGQGTLVTVSS
VL: B1 VL with G91S, W93Y, Y94S
notes: as for B1
B4: Fab 3D9 (Fab, V domains shown)
VH: EVQLVESGGGLVQPGGSLRLSCAASGFNIYSSSIHWVRQAPGKGLEWVASIYSSYGYTYYADSVKGRFTISADTSKNTAYLQMNSLRAEDTAVYYCARRLMAYHGSCSSRLCQTAISPQRYAMDYWGQGTLVTVSS
VL: B1 VL with G91S, W93Y, Y94S
notes: as for B1
B5: Fab 33D4 (Fab, V domains shown)
VH: EVQLVESGGGLVQPGGSLRLSCAASGFNIYYSSMHWVRQAPGKGLEWVASISPYSGSTYYADSVKGRFTISADTSKNTAYLQMNSLRAEDTAVYYCARSVHMKLSNKILSGWSWNNSFYAMDYWGQGTLVTVSS
VL: B1 VL with G91S, W93Y, Y94S
notes: also called R2C15; not shown: His tag at the C-terminus of the heavy chain
B6: Fab 2B5 (Fab, V domains shown)
VH: EVQLVESGGGLVQPGGSLRLSCAASGFNLSYSSMHWVRQAPGKGLEWVASIYPYSGYTYYADSVKGRFTISADTSKNTAYLQMNSLRAEDTAVYYCARIGVNAWAVKMSQRMLATRGSGWYVMDYWGQGTLVTVSS
VL: DIQMTQSPSSLSASVGDRVTITCRASQSVSSAVAWYQQKPGKAPKLLIYSASSLYSGVPSRFSGSRSGTDFTLTISSLQPEDFATYYCQQSSSYPYSPITFGQGTKVEIKR
notes: as for B1
B7: Fab 3F3 (Fab, V domains shown)
VH: EVQLVESGGGLVQPGGSLRLSCAASGFNIYSSSMHWVRQAPGKGLEWVAYIYPYSGYTYYADSVKGRFTISADTSKNTAYLQMNSLRAEDTAVYYCARLYNGWLMVEGIGSAREGPTWYAMDYWGQGTLVTVSS
VL: B6 VL with S91G, S92G, S93V, P95A, Y96A, S97H, I99F
notes: also called R2C13; not shown: His tag at the C-terminus of the heavy chain
B8: Fab 3G9 (Fab, V domains shown)
VH: EVQLVESGGGLVQPGGSLRLSCAASGFNIYYSSIHWVRQAPGKGLEWVASIYSYSGYTYYADSVKGRFTISADTSKNTAYLQMNSLRAEDTAVYYCARATNEKFRRKSLQVRLLMRSWLAYAMDYWGQGTLVTVSS
VL: B6 VL with S91A, S93Y, Y94A, P95A, Y96S, S97A, P98L
notes: as for B1
B9: Fab 32D1 (Fab, V domains shown)
VH: EVQLVESGGGLVQPGGSLRLSCAASGFNLYYSYMHWVRQAPGKGLEWVASISPYSGYTYYADSVKGRFTISADTSKNTAYLQMNSLRAEDTAVYYCARMSLHRNFNQQGRSRLLGRMPRTYGMDYWGQGTLVTVSS
VL: DIQMTQSPSSLSASVGDRVTITCRASQSVSSAVAWYQQKPGKAPKLLIYSASSLYSGVPSRFSGSRSGTDFTLTISSLQPEDFATYYCQQYYSLITFGQGTKVEIKR
notes: as for B1
B10: Fab 33C4 (Fab, V domains shown)
VH: EVQLVESGGGLVQPGGSLRLSCAASGFNLYSSSMHWVRQAPGKGLEWVASIYPYYGYTYYADSVKGRFTISADTSKNTAYLQMNSLRAEDTAVYYCARPTTSRVNKKLFRVSVLHPGSYGMDYWGQGTLVTVSS
VL: B9 VL with Y91A, Y92S, S93Y
notes: also called R2C3; not shown: His tag at the C-terminus of the heavy chain
B11: Fab 32C11 (Fab, V domains shown)
VH: EVQLVESGGGLVQPGGSLRLSCAASGFNLYYSSIHWVRQAPGKGLEWVASISSYSSYTYYADSVKGRFTISADTSKNTAYLQMNSLRAEDTAVYYCAREIHMLSRQARYLRDGRRPRGSMYVMDYWGQGTLVTVSS
VL: B1 VL with G91Y, S92G, W93A, Y94G
notes: also called R3C7; not shown: His tag at the C-terminus of the heavy chain
B12: Fab 3B2 (Fab, V domains shown)
VH: EVQLVESGGGLVQPGGSLRLSCAASGFNFSSSSIHWVRQAPGKGLEWVASIYSSYSSTYYADSVKGRFTISADTSKNTAYLQMNSLRAEDTAVYYCARSTAATTLSRMSRSYWTIQLPYGMDYWGQGTLVTVSS
VL: B1 VL with G91S, W93Y, Y94S
notes: also called R2C1; not shown: His tag at the C-terminus of the heavy chain
B13: Fab 33F5 (Fab, V domains shown)
VH: EVQLVESGGGLVQPGGSLRLSCAASGFNLYYSYMHWVRQAPGKGLEWVAYISPSSSSTYYADSVKGRFTISADTSKNTAYLQMNSLRAEDTAVYYCARNFRVESAGRPGKTVLRKDGKYAMDYWGQGTLVTVSS
VL: B1 VL with G91S, W93V, Y94G, I96F
notes: also called R2C20; not shown: His tag at the C-terminus of the heavy chain
B14: N-terminal inhibitory domain of tissue inhibitor of metalloproteinase-2 (n-TIMP-2) (other, UniProt P16035 27-153, looked up)
chain: CSCSPVHPQQAFCNADVVIRAKAVSEKEVDSGNDIYGNPIKRIQYEIKQIKMFKGPEKDIEFIYTAPSSAVCGVSLDVGGKKEYLIAGKAEGDGKMHITLCDFIVPWDTLSTTQKKSLNHRYQMGCE
notes: domain: N-terminal domain
B15: MMP-14 catalytic domain mutant F198A (enzyme)
chain: not shown
B16: MMP-14 catalytic domain mutant T190A (enzyme)
chain: not shown
B17: MMP-14 catalytic domain mutant F204A (enzyme)
chain: not shown
B18: MMP-14 catalytic domain mutant Y203A (enzyme)
chain: not shown
B19: MMP-14 catalytic domain mutant N231A (enzyme)
chain: not shown

The binders below were run against T2, catalytic domain of MMP-14 (cdMMP-14) (human, UniProt P50281 114-287, limits assumed, biotinylated (Sulfo-NHS-LC-Biotin) where immobilised via streptavidin) (assay: cell-based or functional assay).

IC50 by FRET Assay [nM]	Binder
6000	B1
42	B2
8000	B3
61	B4
3900	B5
240	B6
970	B7
390	B8
4200	B9
4600	B10

Each binder was assayed against T2, catalytic domain of MMP-14 (cdMMP-14) (assay: ELISA, Fab titrated on immobilised MMP-14 catalytic domain, anti-Fab-HRP).
Protocol: Bound Fabs were detected using the anti-Fab-HRP conjugate. The half-maximal effective concentration (EC₅₀) was calculated from a four-parametric logistic curve-fitting analysis.

EC50 [nM]	Binder
51	B1
29	B11
590	B12
47	B2
150	B3
1600	B13
6.4	B4
460	B5
24	B6
34	B7
160	B8
350	B9
220	B10

What follows are binders tested against T1, catalytic domain of MMP-9 (cdMMP-9) (assay: ELISA, purified Fab at 50, 100, 250 and 500 nM on immobilised MMP catalytic domain, anti-Fab-HRP, OD450).

binding result	Binder
no binding (tested: 500 nM)	B2
no binding (tested: 500 nM)	B4
no binding (tested: 500 nM)	B6

Each binder was assayed against catalytic domain of MMP-2 (human, UniProt P08253 115-449, limits assumed, biotinylated (Sulfo-NHS-LC-Biotin)) in the same assay as above.
Sequence of catalytic domain of MMP-2 (P08253 other isoform, or with tags, fused parts or gaps limits assumed): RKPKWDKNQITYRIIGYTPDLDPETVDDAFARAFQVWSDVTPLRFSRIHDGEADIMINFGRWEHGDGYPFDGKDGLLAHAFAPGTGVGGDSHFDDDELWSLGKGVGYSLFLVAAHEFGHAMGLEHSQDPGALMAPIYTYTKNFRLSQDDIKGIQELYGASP

binding result	Binder
no binding (tested: 500 nM)	B2
no binding (tested: 500 nM)	B4
no binding (tested: 500 nM)	B6

Target: T2, catalytic domain of MMP-14 (cdMMP-14)
Experiment: cell-based or functional assay
Remark: another data set of the same source

IC50 of inhibition at neutral pH 7.5 [nM]	IC50 of inhibition at pH 6.5 [nM]	IC50 of inhibition at pH 8.5 [nM]	inhibitory IC50 (FRET peptide substrate) [nM]	Binder
65	10.5	157	–	B4
–	–	–	5.1	B14

Target: T2, catalytic domain of MMP-14 (cdMMP-14)
Experiment: cell-based or functional assay
Remark: another data set of the same source

Inhibition potency (FRET IC50) [nM]	Binder
3900	B5
970	B7
4600	B10

These binders were tested against T2, catalytic domain of MMP-14 (cdMMP-14) (assay: competitive ELISA: serially diluted n-TIMP-2 with Fab 3A2 fixed at 10 nM on biotinylated cdMMP-14 on streptavidin wells; bound Fab detected with anti-Fab-HRP; competitor: Fab 3A2).

IC50 (read off the curve) [nM]	Binder
~30	B14

Each binder was assayed against T3, Fab 3A2 (assay: competitive ELISA: 10 nM Fab 3A2 pre-incubated with soluble MMP-14 (WT or mutant), then captured on immobilised wild-type MMP-14; anti-Fab-HRP).
T3 construct: also called R3C9; not shown: His tag at the C-terminus of the heavy chain

IC50 (read off the curve) [nM]	binding result	Binder
~100	–	B15
~100	–	B16
–	binds	B17
~100	–	B18
–	binds	B19

These binders were tested against T2, catalytic domain of MMP-14 (cdMMP-14) (assay: ELISA, Fab titrated on immobilised biotin-cdMMP-14, anti-Fab-HRP).

EC50 [nM]	Binder
29	B11
590	B12
1600	B13
460	B5
34	B7
220	B10
